Tests used:
[1] = molecular target: the molecule itself; test: pulsed field gradient NMR diffusion; Ca2+-bound: same sample after addition of Ca2+ to 9 mM, 287 K; one and two components fitted for WT
[2] = molecular target: T1, S100A4Δ13 (C-terminal deletion mutant, residues 1-88) (human, UniProt P26447 1-88); test: ITC; 75 µM S100A4Δ13 in the cell titrated with MPT at 25°C (298 K) in the presence of 1 mM CaCl2; conditions: both partners purified
T1 construct: human S100A4, residues 1-88 (F89-K101 deleted); also called Δ13 mutant; Δ13 S100A4
T1 sequence (P26447 1-88, stated change not applied): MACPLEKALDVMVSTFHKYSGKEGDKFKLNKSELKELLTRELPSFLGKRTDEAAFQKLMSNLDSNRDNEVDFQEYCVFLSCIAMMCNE

Row | Kd [2] [nM] | Binder | stoichiometry N [1]
1 | – | S100A4 C-terminal deletion mutant (residues 1-88, Δ13) (domain or fragment, also called Δ13 mutant; S100A4Δ13) not shown | 2
2 | 14.7 | YRKLQRELEDATETADAMNREVSSLKNKLRRGDLPFVVPRRMARK (extra N-terminal tyrosine, printed as 'Tyr-Arg1894-Lys1937'; non-muscle myosin IIA (NMIIA) heavy chain, residues Arg1894-Lys1937; also called MPT peptide; myosin IIA fragment; not shown: His10, N-terminal, cleaved; ubiquitin, N-terminal, cleaved) [NMIIA fragment MPT (Tyr-Arg1894-Lys1937)] | –
